According to patent US20250313634A1 (WUXI BIOLOGICS SHANGHAI, published 2025):

Assays:
Experiment in all cases: capture ELISA on coated 1.14.4; relative to silent alanine substitutions
[1] = target: T1, hPD-L1_ECD.His point mutant L27A (human, UniProt Q9NZQ7 19-238)
T1 construct: extracellular domain
Method: (§1) After interacting with the supernatant that contains quantified PD-L1 mutant or human/mouse PD-L1_ECD.His protein (Sino Biological, China), HRP conjugated anti-His antibody (1:5000; Rockland Immunochemicals, Pottstown, PA) was added as detection antibody. Absorbance was normalized according to the average of control mutants. After setting an additional cutoff to the binding fold change (<0.55), the final determined epitope residues were identified.
(§2) The observed binding reductions most probably resulted from the instability or even collapse of hPD-L1 structure after alanine substitutions. After setting an additional cutoff to the binding fold change (<0.55), the final determined epitope residues were listed in Table 3.

[2] = target: T2, hPD-L1_ECD.His point mutant Y118A (human, UniProt Q9NZQ7 19-238)
T2 construct: extracellular domain
T2 sequence (Q9NZQ7 19-238 Y118A): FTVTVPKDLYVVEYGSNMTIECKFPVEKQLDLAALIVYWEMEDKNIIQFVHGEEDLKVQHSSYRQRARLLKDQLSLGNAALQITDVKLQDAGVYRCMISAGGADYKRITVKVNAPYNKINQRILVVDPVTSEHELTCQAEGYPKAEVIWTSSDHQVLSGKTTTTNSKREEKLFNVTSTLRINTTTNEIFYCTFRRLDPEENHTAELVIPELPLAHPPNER
Method: as §1, §2

[3] = target: T3, hPD-L1_ECD.His point mutant T154A (human, UniProt Q9NZQ7 19-238)
T3 construct: extracellular domain
T3 sequence (Q9NZQ7 19-238 T154A): as the sequence (Q9NZQ7 19-238 Y118A) above, with A100Y, T136A counted along it
Method: as §1, §2

[4] = target: T4, hPD-L1_ECD.His point mutant P43A (human, UniProt Q9NZQ7 19-238)
T4 construct: extracellular domain
T4 sequence (Q9NZQ7 19-238 P43A): as the sequence (Q9NZQ7 19-238 Y118A) above, with P25A, A100Y counted along it
Method: as §1, §2

[5] = target: T5, hPD-L1_ECD.His point mutant L48A (human, UniProt Q9NZQ7 19-238)
T5 construct: extracellular domain
T5 sequence (Q9NZQ7 19-238 L48A): as the sequence (Q9NZQ7 19-238 Y118A) above, with L30A, A100Y counted along it
Method: as §1, §2

[6] = target: T6, hPD-L1_ECD.His point mutant T196A (human, UniProt Q9NZQ7 19-238)
T6 construct: extracellular domain
T6 sequence (Q9NZQ7 19-238 T196A): as the sequence (Q9NZQ7 19-238 Y118A) above, with A100Y, T178A counted along it
Method: as §1, §2

[7] = target: T7, hPD-L1_ECD.His point mutant E31A (human, UniProt Q9NZQ7 19-238)
T7 construct: extracellular domain
T7 sequence (Q9NZQ7 19-238 E31A): as the sequence (Q9NZQ7 19-238 Y118A) above, with E13A, A100Y counted along it
Method: as §1, §2

[8] = target: T8, hPD-L1_ECD.His point mutant E72A (human, UniProt Q9NZQ7 19-238)
T8 construct: extracellular domain
T8 sequence (Q9NZQ7 19-238 E72A): as the sequence (Q9NZQ7 19-238 Y118A) above, with E54A, A100Y counted along it
Method: as §1, §2

[9] = target: T9, hPD-L1_ECD.His point mutant A52G (human, UniProt Q9NZQ7 19-238)
T9 construct: extracellular domain
T9 sequence (Q9NZQ7 19-238 A52G): as the sequence (Q9NZQ7 19-238 Y118A) above, with A34G, A100Y counted along it
Method: as §1, §2

[10] = target: T10, hPD-L1_ECD.His point mutant K129A (human, UniProt Q9NZQ7 19-238)
T10 construct: extracellular domain
T10 sequence (Q9NZQ7 19-238 K129A): as the sequence (Q9NZQ7 19-238 Y118A) above, with A100Y, K111A counted along it
Method: as §1, §2

[11] = target: T11, hPD-L1_ECD.His point mutant R82A (human, UniProt Q9NZQ7 19-238)
T11 construct: extracellular domain
T11 sequence (Q9NZQ7 19-238 R82A): as the sequence (Q9NZQ7 19-238 Y118A) above, with R64A, A100Y counted along it
Method: as §1, §2

[12] = target: T12, hPD-L1_ECD.His point mutant D103A (human, UniProt Q9NZQ7 19-238)
T12 construct: extracellular domain
T12 sequence (Q9NZQ7 19-238 D103A): as the sequence (Q9NZQ7 19-238 Y118A) above, with D85A, A100Y counted along it
Method: as §1, §2

[13] = target: T13, hPD-L1_ECD.His point mutant I199A (human, UniProt Q9NZQ7 19-238)
T13 construct: extracellular domain
T13 sequence (Q9NZQ7 19-238 I199A): as the sequence (Q9NZQ7 19-238 Y118A) above, with A100Y, I181A counted along it
Method: as §1, §2

[14] = target: T14, hPD-L1_ECD.His point mutant M36A (human, UniProt Q9NZQ7 19-238)
T14 construct: extracellular domain
T14 sequence (Q9NZQ7 19-238 M36A): as the sequence (Q9NZQ7 19-238 Y118A) above, with M18A, A100Y counted along it
Method: as §1, §2

[15] = target: T15, hPD-L1_ECD.His point mutant I64A (human, UniProt Q9NZQ7 19-238)
T15 construct: extracellular domain
T15 sequence (Q9NZQ7 19-238 I64A): as the sequence (Q9NZQ7 19-238 Y118A) above, with I46A, A100Y counted along it
Method: as §1, §2

[16] = target: T16, hPD-L1_ECD.His point mutant G120A (human, UniProt Q9NZQ7 19-238)
T16 construct: extracellular domain
T16 sequence (Q9NZQ7 19-238 G120A): as the sequence (Q9NZQ7 19-238 Y118A) above, with A100Y, G102A counted along it
Method: as §1, §2

[17] = target: T17, hPD-L1_ECD.His point mutant S117A (human, UniProt Q9NZQ7 19-238)
T17 construct: extracellular domain
T17 sequence (Q9NZQ7 19-238 S117A): as the sequence (Q9NZQ7 19-238 Y118A) above, with S99A, A100Y counted along it
Method: as §1, §2

[18] = target: T18, hPD-L1_ECD.His point mutant T180A (human, UniProt Q9NZQ7 19-238)
T18 construct: extracellular domain
T18 sequence (Q9NZQ7 19-238 T180A): as the sequence (Q9NZQ7 19-238 Y118A) above, with A100Y, T162A counted along it
Method: as §1, §2

[19] = target: T19, hPD-L1_ECD.His point mutant S93A (human, UniProt Q9NZQ7 19-238)
T19 construct: extracellular domain
T19 sequence (Q9NZQ7 19-238 S93A): as the sequence (Q9NZQ7 19-238 Y118A) above, with S75A, A100Y counted along it
Method: as §1, §2

[20] = target: T20, hPD-L1_ECD.His point mutant R113A (human, UniProt Q9NZQ7 19-238)
T20 construct: extracellular domain
T20 sequence (Q9NZQ7 19-238 R113A): as the sequence (Q9NZQ7 19-238 Y118A) above, with R95A, A100Y counted along it
Method: as §1, §2

[21] = target: T21, hPD-L1_ECD.His point mutant K25A (human, UniProt Q9NZQ7 19-238)
T21 construct: extracellular domain
T21 sequence (Q9NZQ7 19-238 K25A): as the sequence (Q9NZQ7 19-238 Y118A) above, with K7A, A100Y counted along it
Method: as §1, §2

[22] = target: T22, hPD-L1_ECD.His point mutant L88A (human, UniProt Q9NZQ7 19-238)
T22 construct: extracellular domain
T22 sequence (Q9NZQ7 19-238 L88A): as the sequence (Q9NZQ7 19-238 Y118A) above, with L70A, A100Y counted along it
Method: as §1, §2

[23] = target: T23, hPD-L1_ECD.His point mutant Q66A (human, UniProt Q9NZQ7 19-238)
T23 construct: extracellular domain
T23 sequence (Q9NZQ7 19-238 Q66A): as the sequence (Q9NZQ7 19-238 Y118A) above, with Q48A, A100Y counted along it
Method: as §1, §2

[24] = target: T24, hPD-L1_ECD.His point mutant A232G (human, UniProt Q9NZQ7 19-238)
T24 construct: extracellular domain
T24 sequence (Q9NZQ7 19-238 A232G): as the sequence (Q9NZQ7 19-238 Y118A) above, with A100Y, A214G counted along it
Method: as §1, §2

[25] = target: T25, hPD-L1_ECD.His point mutant I38A (human, UniProt Q9NZQ7 19-238)
T25 construct: extracellular domain
T25 sequence (Q9NZQ7 19-238 I38A): as the sequence (Q9NZQ7 19-238 Y118A) above, with I20A, A100Y counted along it
Method: as §1, §2

[26] = target: T26, hPD-L1_ECD.His point mutant G119A (human, UniProt Q9NZQ7 19-238)
T26 construct: extracellular domain
T26 sequence (Q9NZQ7 19-238 G119A): as the sequence (Q9NZQ7 19-238 Y118A) above, with A100Y, G101A counted along it
Method: as §1, §2

T1 sequence (Q9NZQ7 19-238 L27A): as the sequence (Q9NZQ7 19-238 Y118A) above, with L9A, A100Y counted along it

B1: 1.14.4 (antibody, V domains shown)
VH: EVQLLESGGGLVQPGGSLRLSCAASGFTFSSYAMSWVRQAPGKGLEWVSGISGSGGFTYYADSVKGRFTISRDNSKNTLYLQMNSLRAEDTAVYYCAKPPRGYNYGPFDYWGQGTLVTVSS
VL: SYVLTQPPSVSVAPGQTARITCGGNNIGSKSVHWYQQKPGQAPVLVVYDDSDRPSGIPERFSGSNSGNTATLTISRVEAGDEADYYCQVWDSSSDHVVFGGGTKLTVL
notes: Fully human monoclonal antibody with a human constant region of IgG4 isotype
With B1 the fold change [1] was 0.949 fold, the fold change [2] was 0.701 fold and the fold change [3] was 0.888 fold. It also gave a fold change [4] of 0.834 fold, a fold change [5] of 0.77 fold and a fold change [6] of 0.898 fold. It also gave a fold change [7] of 0.908 fold, a fold change [8] of 0.748 fold and a fold change [9] of 0.622 fold. For the same binder, the fold change [10] was 0.586 fold, the fold change [11] was 0.934 fold and the fold change [12] was 0.863 fold. The fold change [13] was 0.848 fold, the fold change [14] was 1.04 fold and the fold change [15] was 0.716 fold. It also gave a fold change [16] of 0.895 fold, a fold change [17] of 0.935 fold and a fold change [18] of 1 fold. For the same binder, the fold change [19] was 1.15 fold, the fold change [20] was 0.161 fold and the fold change [21] was 0.857 fold. The fold change [22] was 1.1 fold, the fold change [23] was 0.979 fold and the fold change [24] was 0.756 fold. For the same binder, the fold change [25] was 1.13 fold and the fold change [26] was 0.825 fold.
